Our source for the transient CRE luciferase-based (EVX-Luc) reporter assay, basal transcriptional activity of S391A mutant CRTC3 against WT CRTC3 values is PMC6317279.

The assay has as its target FLAG-tagged CRTC3 S391A (mouse) (UniProt Q91X84).
Sequence of UniProt Q91X84 (Q91X84 whole entry S391A): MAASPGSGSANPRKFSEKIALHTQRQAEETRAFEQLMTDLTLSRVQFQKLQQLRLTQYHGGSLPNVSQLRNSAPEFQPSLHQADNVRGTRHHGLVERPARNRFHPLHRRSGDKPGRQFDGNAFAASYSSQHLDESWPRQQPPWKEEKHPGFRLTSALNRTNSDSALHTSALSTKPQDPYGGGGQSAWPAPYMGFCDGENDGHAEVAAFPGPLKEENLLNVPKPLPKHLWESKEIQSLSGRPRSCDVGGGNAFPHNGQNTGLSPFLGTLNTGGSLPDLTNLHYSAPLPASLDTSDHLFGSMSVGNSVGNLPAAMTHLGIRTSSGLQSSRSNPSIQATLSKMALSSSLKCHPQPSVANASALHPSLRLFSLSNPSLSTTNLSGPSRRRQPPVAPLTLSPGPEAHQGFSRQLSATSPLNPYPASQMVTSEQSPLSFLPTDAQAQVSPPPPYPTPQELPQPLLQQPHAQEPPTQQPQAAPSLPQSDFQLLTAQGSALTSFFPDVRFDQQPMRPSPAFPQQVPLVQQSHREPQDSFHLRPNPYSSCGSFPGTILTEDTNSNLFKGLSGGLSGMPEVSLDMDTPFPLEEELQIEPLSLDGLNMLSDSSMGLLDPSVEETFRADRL

Turning to “B55 PP2A holoenzyme (protein phosphatase 2A: catalytic, scaffold and 55-kDa regulatory B subunits) (from UniProt P67775 1-309; P30153 1-589; P63151 1-447) (complex)”, the transient CRE luciferase-based (EVX-Luc) reporter assay, basal transcriptional activity of S391A mutant CRTC3 against WT CRTC3 amounted to 2 fold lower.
